± gives the uncertainty stated by the source.
Assay: self-splicing fitness, log relative to wild type (ln ratio); higher = more splicing; Tetrahymena group I intron in knt gene, E. coli kanamycin selection, DiMSum; sequences stand for … in CUCUCU…GGAGGGAAAAGUUAUCAGGCAUGCACCUGGUAGCUAGUCUUUAAACCAAUAGAUUGCAUCGGUUUAAAAGGCAAGACCGUCAAAUUGCGGGAAAGGGGUCAACAGCCGUUCAGUACCAAGUCUCAGGGGAAACUUUGAGAUGGCCUUGCAAAGGGUAUGGUAAUAAGCUGACGGACAUGGUCCUAACCACGCAGCCAAGUCCUAAGUCAACAGAUCUUCUGUUGAUAUGGAUGCAGUUCACAGACUAAAUGUCGGUCGGGGAAGAUGUAUUCUUCUCAUAAGAUAUAGUCGGACCUCUCCUUAAUGGGAGCUAGCGGAUGAAGUGAUGCAACACUGGAGCCGCUGGGAACUAAUUUGUAUGCGAAAGUAUAUUGAUUAGUUUUGGAGUACUCGUGGUCG
Outline: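 Colonies from six replicate transformations of E. coli BL21(DE3) were pooled and amplicon-sequenced on an Illumina HiSeq 2500. The library placed an intron with all eight P1ex-region nucleotides randomised inside the knt kanamycin-resistance gene on pET-22b(+), and cells grew overnight at 37°C or 30°C on LB agar with or without 25 μg/mL kanamycin (plus 100 μg/mL carbenicillin, 50 μM IPTG, 0.2% rhamnose). Fitness is the DiMSum error-weighted combination of wild-type-normalised replicate fold changes, kanamycin versus none.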

Sequence	self-splicing fitness (ln) (30 °C)	self-splicing fitness (ln) (37 °C)
GUUAAGCAAUAUUACGAAGC	-2.32 ± 0.41	-1.82 ± 0.3
CCCCAGCAAUAUUACGGAGU	-4.02 ± 0.15	-2.75 ± 0.15
CGCGAGCAAUAUUACGAGGU	-2.22 ± 0.25	-1.93 ± 0.23
AGGCAGCAAUAUUACGUUGA	-2.42 ± 0.11	-1.25 ± 0.1
AAUAAGCAAUAUUACGGCAG	-0.454 ± 0.11	-0.547 ± 0.16
CUUCAGCAAUAUUACGUUGC	-4.23 ± 0.3	-3.04 ± 0.25
CUCGAGCAAUAUUACGUCCG	-3.41 ± 0.18	-3.68 ± 0.42
UGUAAGCAAUAUUACGCUUU	-3.09 ± 0.26	-2.72 ± 0.27
UAGCAGCAAUAUUACGAGAG	-2.8 ± 0.2	-3.15 ± 0.29
GAACAGCAAUAUUACGUUCG	-2.12 ± 0.099	-1.38 ± 0.096
CCCUAGCAAUAUUACGUAUA	-3.24 ± 0.25	-2.89 ± 0.4
AUUGAGCAAUAUUACGACUG		-0.882 ± 0.25
AGCUAGCAAUAUUACGUUGA	-2.68 ± 0.23	-1.69 ± 0.16
CCCCAGCAAUAUUACGACAG	-3.96 ± 0.12	-2.92 ± 0.14
GUUGAGCAAUAUUACGUAAC	-2.16 ± 0.42	-2.88 ± 0.3
AGUCAGCAAUAUUACGCAAA	-1.62 ± 0.11	-1.01 ± 0.15
UCGCAGCAAUAUUACGUACU		-1.86 ± 0.32
GGACAGCAAUAUUACGUUCG	-0.223 ± 0.076	0.0323 ± 0.095
CCAAAGCAAUAUUACGUCGC	-3.49 ± 0.18	-2.29 ± 0.18
CAAUAGCAAUAUUACGGUAG	-1.34 ± 0.097	-0.488 ± 0.1
GUAUAGCAAUAUUACGCUGU	-2.81 ± 0.26	-2.48 ± 0.3
UAUCAGCAAUAUUACGUCCG	-0.361 ± 0.11	0.121 ± 0.14
AAGUAGCAAUAUUACGUGGG	-3.49 ± 0.2	-3.24 ± 0.23
AGUAAGCAAUAUUACGAGCA	-0.223 ± 0.1	-0.349 ± 0.11
ACCUAGCAAUAUUACGAGGG	-3.45 ± 0.17	-1.4 ± 0.12

Sequence	self-splicing fitness (ln) (30 °C)	self-splicing fitness (ln) (37 °C)
CUACAGCAAUAUUACGUUGC	-3.67 ± 0.23	-2.82 ± 0.21
AGCCAGCAAUAUUACGGGUA	-1.59 ± 0.094	-1.08 ± 0.092
AUGAAGCAAUAUUACGAGUC		-2.69 ± 0.24
CUUUAGCAAUAUUACGGUCA	-2.41 ± 0.25	-3.28 ± 0.35
ACUGAGCAAUAUUACGGCAU	-0.643 ± 0.071	-0.708 ± 0.1
CCCAAGCAAUAUUACGGAGU	-3.37 ± 0.11	-2.47 ± 0.11
UCGUAGCAAUAUUACGUUUC	-3.71 ± 0.24	-2.31 ± 0.21
CCAGAGCAAUAUUACGGGAC	-2.81 ± 0.33	
CGGAAGCAAUAUUACGCUCG	-3.42 ± 0.21	-1.97 ± 0.23
UGAUAGCAAUAUUACGGUCA	-0.441 ± 0.073	-0.29 ± 0.071
ACAAAGCAAUAUUACGUCCU	-0.488 ± 0.07	-0.399 ± 0.08
UGCCAGCAAUAUUACGAAUC	-4.4 ± 0.46	
GGACAGCAAUAUUACGAGCC	-1.49 ± 0.15	-2.56 ± 0.25
UAAAAGCAAUAUUACGUAGC	-3.26 ± 0.19	-2.72 ± 0.18
GCCAAGCAAUAUUACGCAUA	-1.3 ± 0.09	-0.709 ± 0.085
GCAUAGCAAUAUUACGACUG	-1.68 ± 0.12	-0.65 ± 0.16
CGGCAGCAAUAUUACGGAUG	-0.873 ± 0.075	0.507 ± 0.11
GUUGAGCAAUAUUACGCUGC		-0.666 ± 0.3
GUGGAGCAAUAUUACGUGUU	-4.54 ± 0.47	
UCCGAGCAAUAUUACGGCGC		-3.02 ± 0.37
CUGCAGCAAUAUUACGUGGA	-2.92 ± 0.16	-3.04 ± 0.2
AAAUAGCAAUAUUACGCCUG	-0.3 ± 0.08	-1.03 ± 0.1
ACCCAGCAAUAUUACGGGGC	-4.5 ± 0.19	-2.73 ± 0.14
CAUGAGCAAUAUUACGUAGC	-1.64 ± 0.17	-1.96 ± 0.26
CUACAGCAAUAUUACGAAGC	-3.61 ± 0.24	-2.85 ± 0.25

Sequence	self-splicing fitness (ln) (30 °C)	self-splicing fitness (ln) (37 °C)
GGUAAGCAAUAUUACGCUGC	-2.94 ± 0.2	
CUCCAGCAAUAUUACGUAGU	-3.75 ± 0.19	-2.89 ± 0.22
GUGUAGCAAUAUUACGGCGC	-2.06 ± 0.44	-0.968 ± 0.32
GUGCAGCAAUAUUACGCGGC	-1.7 ± 0.14	-2.51 ± 0.23
CCUAAGCAAUAUUACGAGAA	-2.67 ± 0.36	
CGCAAGCAAUAUUACGGACU	-1.39 ± 0.08	0.158 ± 0.082
UGAUAGCAAUAUUACGUACA	-0.211 ± 0.083	-0.0617 ± 0.12
AGCAAGCAAUAUUACGCAUU	-2.57 ± 0.17	-1.45 ± 0.19
CCUGAGCAAUAUUACGUGCC		-1.6 ± 0.32
UUCCAGCAAUAUUACGACCG	-1.25 ± 0.099	-0.758 ± 0.14
UAUGAGCAAUAUUACGAUGG	-3.59 ± 0.29	-0.796 ± 0.23
UGUUAGCAAUAUUACGCGCC	-1.13 ± 0.14	-0.207 ± 0.24
GAGUAGCAAUAUUACGCCGC	-2.89 ± 0.25	-1.29 ± 0.33
GCGCAGCAAUAUUACGGGAG	-3.14 ± 0.18	-1.39 ± 0.13
GCUUAGCAAUAUUACGGACC	-1.17 ± 0.17	0.79 ± 0.22
GCAGAGCAAUAUUACGGCGU	-0.715 ± 0.099	-0.614 ± 0.11
GGUGAGCAAUAUUACGGUAC	-1.95 ± 0.13	-1.4 ± 0.18
AUUUAGCAAUAUUACGACCG	-1.54 ± 0.24	-0.522 ± 0.23
UAGUAGCAAUAUUACGCAUU	-3.97 ± 0.21	-1.52 ± 0.14
UUUAAGCAAUAUUACGGACG	-0.647 ± 0.15	0.235 ± 0.19
CCUGAGCAAUAUUACGCCAG	-2.75 ± 0.41	-1.62 ± 0.32
CCAAAGCAAUAUUACGCCAG	-1.3 ± 0.1	-0.0837 ± 0.13
AACUAGCAAUAUUACGGCAU	-0.42 ± 0.062	-0.127 ± 0.075
UAUAAGCAAUAUUACGGGCU	-2.64 ± 0.31	-1.71 ± 0.31
CUUCAGCAAUAUUACGUGGG	-3.96 ± 0.16	-2.38 ± 0.19

Sequence	self-splicing fitness (ln) (30 °C)	self-splicing fitness (ln) (37 °C)
CAUUAGCAAUAUUACGAAUG	-2.67 ± 0.19	-2.28 ± 0.3
AGCGAGCAAUAUUACGAUGC	-3.11 ± 0.45	
UCUAAGCAAUAUUACGGACA	-2.39 ± 0.18	-1.18 ± 0.17
CACGAGCAAUAUUACGCCUC	-3.79 ± 0.26	-1.37 ± 0.23
GAUCAGCAAUAUUACGAACG	-0.118 ± 0.16	0.507 ± 0.17
CCUGAGCAAUAUUACGUUAU	-3.15 ± 0.26	-1.96 ± 0.21
AAUGAGCAAUAUUACGUAGC	-2.91 ± 0.2	-2.05 ± 0.36
UUCCAGCAAUAUUACGCACG	-1.72 ± 0.086	-0.884 ± 0.13
UUCCAGCAAUAUUACGCCUC	-1.84 ± 0.21	-0.711 ± 0.29
CUGCAGCAAUAUUACGGUUG	-1.02 ± 0.13	-1.83 ± 0.19
AUCCAGCAAUAUUACGCCUU	-0.818 ± 0.067	-0.214 ± 0.082
GAUUAGCAAUAUUACGCAUG	-0.728 ± 0.14	-0.334 ± 0.17
CAGGAGCAAUAUUACGCAGA	-2.76 ± 0.33	-2.29 ± 0.2
UUCGAGCAAUAUUACGCUCU	-3.38 ± 0.15	-2.43 ± 0.14
ACCGAGCAAUAUUACGGAUA	-2.8 ± 0.35	-2.33 ± 0.27
UUUAAGCAAUAUUACGUAGA	-0.521 ± 0.098	0.0733 ± 0.14
UAGAAGCAAUAUUACGCUCA	0.205 ± 0.16	-0.337 ± 0.18
UACCAGCAAUAUUACGACCU	-2.1 ± 0.17	-1.57 ± 0.17
GCCGAGCAAUAUUACGGGGA	-1.36 ± 0.069	-0.555 ± 0.069
GUUGAGCAAUAUUACGUGGU	-3.25 ± 0.28	
CUCGAGCAAUAUUACGGGGC	-3.41 ± 0.18	-1.51 ± 0.16
CCUAAGCAAUAUUACGGGGG	-3.51 ± 0.2	-2.5 ± 0.24
GAAGAGCAAUAUUACGCUGU	-3.82 ± 0.3	-2.6 ± 0.29
UGAUAGCAAUAUUACGGCGU	-2.1 ± 0.18	-1.22 ± 0.16
